This is an account of results in publication PMC8140157, “RTEL1 influences the abundance and localization of TERRA RNA” (Nature Communications, 2020).

Data set [1] concerns the target T1, RTEL1∆762 (human, UniProt Q9NZ71-6 762-1300).
T1 sequence: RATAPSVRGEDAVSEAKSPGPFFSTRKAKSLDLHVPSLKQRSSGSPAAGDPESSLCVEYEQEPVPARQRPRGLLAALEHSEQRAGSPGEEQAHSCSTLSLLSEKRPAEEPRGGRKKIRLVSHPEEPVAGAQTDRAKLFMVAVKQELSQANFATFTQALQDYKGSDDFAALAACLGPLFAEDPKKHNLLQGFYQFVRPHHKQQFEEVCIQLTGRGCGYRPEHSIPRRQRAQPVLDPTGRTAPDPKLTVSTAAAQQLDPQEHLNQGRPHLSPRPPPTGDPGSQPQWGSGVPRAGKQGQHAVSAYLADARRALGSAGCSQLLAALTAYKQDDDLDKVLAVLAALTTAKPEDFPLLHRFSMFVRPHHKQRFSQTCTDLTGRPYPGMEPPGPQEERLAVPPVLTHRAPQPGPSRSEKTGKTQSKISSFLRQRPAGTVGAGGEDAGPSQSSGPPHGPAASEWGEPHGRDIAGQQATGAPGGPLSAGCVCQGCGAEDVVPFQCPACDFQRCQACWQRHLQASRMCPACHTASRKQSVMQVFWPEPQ
Put plainly: fluorescence anisotropy; 20 mM Tris pH 7.5, 50 mM KCl, 0.5 mM TCEP, 0.5 mM MgCl2, 10% glycerol, 0.1% IGEPAL, room temperature 30 min; oligos refolded in 10 mM Tris pH 7.5, 100 mM KCl; EMSA legends give 150 or 300 mM KCl. Conditions: protein: recombinant, tags: 6xHis, chain copies: 2, label: 5' fluorescein. (Fluorescence polarisation rises when a labelled molecule tumbles more slowly, as on binding a larger partner.)

Data set [2] deals with T1, RTEL1∆762. Kind of data set: competition (fluorescence anisotropy); vs FAM-TERRA-MUT, 1 uM; 20 mM Tris pH 7.5, 50 mM KCl, 0.5 mM TCEP, 0.5 mM MgCl2, 10% glycerol, 0.1% IGEPAL, room temperature 30 min; oligos refolded in 10 mM Tris pH 7.5, 100 mM KCl; EMSA legends give 150 or 300 mM KCl. Particulars: protein: recombinant, tags: 6xHis, chain copies: 2.
Data set [3] concerns the target T2, RTEL1∆762R1264H (human, UniProt Q9NZ71-6 762-1300, R1264H).
T2 sequence: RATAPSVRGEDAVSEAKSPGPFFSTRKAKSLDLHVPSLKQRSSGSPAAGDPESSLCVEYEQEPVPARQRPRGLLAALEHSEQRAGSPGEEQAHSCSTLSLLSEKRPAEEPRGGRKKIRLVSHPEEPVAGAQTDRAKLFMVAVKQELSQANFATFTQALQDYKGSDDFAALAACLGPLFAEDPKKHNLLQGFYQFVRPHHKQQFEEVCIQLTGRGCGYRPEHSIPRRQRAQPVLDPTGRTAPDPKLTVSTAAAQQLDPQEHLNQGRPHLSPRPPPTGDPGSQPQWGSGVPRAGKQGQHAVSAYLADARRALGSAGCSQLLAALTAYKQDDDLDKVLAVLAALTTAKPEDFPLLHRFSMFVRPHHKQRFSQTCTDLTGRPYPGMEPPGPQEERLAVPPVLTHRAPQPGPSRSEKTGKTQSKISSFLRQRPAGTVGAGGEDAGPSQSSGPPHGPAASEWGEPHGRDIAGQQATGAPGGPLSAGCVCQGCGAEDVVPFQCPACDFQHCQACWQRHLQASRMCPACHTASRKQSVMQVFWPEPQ
The description is as above. Particulars: protein: recombinant, tags: 6xHis.

Data set [4] addresses T3, RTEL1∆762-1097 (human, UniProt Q9NZ71-6 762-1097).
T3 sequence: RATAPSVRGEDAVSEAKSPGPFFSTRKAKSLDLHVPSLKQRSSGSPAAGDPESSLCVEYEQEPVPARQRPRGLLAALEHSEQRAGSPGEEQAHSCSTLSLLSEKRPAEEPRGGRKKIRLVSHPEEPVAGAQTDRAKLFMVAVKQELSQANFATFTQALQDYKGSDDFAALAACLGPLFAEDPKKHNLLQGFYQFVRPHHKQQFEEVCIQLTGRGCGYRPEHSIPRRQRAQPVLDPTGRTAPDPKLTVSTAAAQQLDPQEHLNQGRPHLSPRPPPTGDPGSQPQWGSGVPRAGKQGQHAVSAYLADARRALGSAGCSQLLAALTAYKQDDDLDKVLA
Described as above. Conditions: protein: recombinant, tags: 6xHis.

Data set [5] has as its target T1, RTEL1∆762. Put plainly: competition (fluorescence anisotropy); vs FAM-TERRA-MUT, 200 nM; 20 mM Tris pH 7.5, 50 mM KCl, 0.5 mM TCEP, 0.5 mM MgCl2, 10% glycerol, 0.1% IGEPAL, room temperature 30 min; oligos refolded in 10 mM Tris pH 7.5, 100 mM KCl; EMSA legends give 150 or 300 mM KCl. Conditions: protein: recombinant, tags: 6xHis, chain copies: 2. For orientation: In EMSA bound probe runs differently from free probe, usually more slowly.

The target in data set [6] is T2, RTEL1∆762R1264H. The data set is described as above. Conditions: protein: recombinant, tags: 6xHis.
The target of data set [7] is T3, RTEL1∆762-1097. The description is as above. Conditions: protein: recombinant, tags: 6xHis.
Data set [8] concerns the target T1, RTEL1∆762. Put plainly: fluorescence anisotropy; RNA folded in 0 mM KCl; 20 mM Tris pH 7.5, 50 mM KCl, 0.5 mM TCEP, 0.5 mM MgCl2, 10% glycerol, 0.1% IGEPAL, room temperature 30 min; oligos refolded in 10 mM Tris pH 7.5, 100 mM KCl; EMSA legends give 150 or 300 mM KCl. Particulars: protein: recombinant; tags: 6xHis; chain copies: 2; label: 5' fluorescein; no G4 (folded without KCl).

Data set [9] deals with T1, RTEL1∆762. Put plainly: fluorescence anisotropy; RNA folded in 100 mM KCl; 20 mM Tris pH 7.5, 50 mM KCl, 0.5 mM TCEP, 0.5 mM MgCl2, 10% glycerol, 0.1% IGEPAL, room temperature 30 min; oligos refolded in 10 mM Tris pH 7.5, 100 mM KCl; EMSA legends give 150 or 300 mM KCl. Conditions: protein: recombinant; tags: 6xHis; chain copies: 2; label: 5' fluorescein; no G4.
The target of data set [10] is T1, RTEL1∆762. Put plainly: fluorescence anisotropy; RNA folded in 100 mM KCl; text: <10 nM, at detection limit; 20 mM Tris pH 7.5, 50 mM KCl, 0.5 mM TCEP, 0.5 mM MgCl2, 10% glycerol, 0.1% IGEPAL, room temperature 30 min; oligos refolded in 10 mM Tris pH 7.5, 100 mM KCl; EMSA legends give 150 or 300 mM KCl. Particulars: protein: recombinant; tags: 6xHis; chain copies: 2; label: 5' fluorescein; G4.

In the next data set the target is T4, RTEL1∆1143 (human, UniProt Q9NZ71-6 1143-1300).
T4 sequence: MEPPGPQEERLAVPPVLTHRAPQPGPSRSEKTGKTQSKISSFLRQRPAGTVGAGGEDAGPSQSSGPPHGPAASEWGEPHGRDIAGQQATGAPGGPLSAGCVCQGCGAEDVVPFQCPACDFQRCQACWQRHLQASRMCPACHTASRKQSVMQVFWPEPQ
Put plainly: EMSA; negligible at 5 uM protein; 150 mM KCl; 20 mM Tris pH 7.5, 50 mM KCl, 0.5 mM TCEP, 0.5 mM MgCl2, 10% glycerol, 0.1% IGEPAL, room temperature 30 min; oligos refolded in 10 mM Tris pH 7.5, 100 mM KCl; EMSA legends give 150 or 300 mM KCl. Particulars: protein: recombinant; tags: 6xHis; label: 5' fluorescein; G4.

Data set [11] concerns the molecule itself. Kind of data set: SEC-MALS; 200-300 µg protein on Superdex 200 10/300 GL, 0.3 ml per minute, 50 mM Hepes pH 7.5, 1 mM TCEP, 150 or 300 mM NaCl; dimer to monomers.

In general, Kd refers to the constant that tells how readily two partners part at equilibrium. As to AAAAAAAAAAAAAAAAAAAAAAAA (ssRNA) [Poly A 24mer], the Kd with RTEL1∆762 [1] turned out to be 498 ± 47.8 nM.

One may read the Ki as a measure of affinity in units of concentration, obtained from inhibition or displacement. In the case of UUAGGGUUAGGGUUAGGGUUAGGG (structured_RNA) [TERRA competitor], the Ki with RTEL1∆762 [2] (G4) came to 29 ± 4 nM; with RTEL1∆762R1264H [3] (G4), 107 ± 14 nM; with RTEL1∆762-1097 [4] (G4), 978 ± 84 nM; with RTEL1∆762 [5] (G4), 17 ± 3 nM; with RTEL1∆762R1264H [6] (G4), 30 ± 7 nM; in the data set with RTEL1∆762-1097 [7] (G4) it was 245 ± 35 nM.

GGTTACCGTTACCGTTACCGTTACCGTTAG (ssDNA) [hTelo-MUT]: the Ki with RTEL1∆762 [2] (no G4) worked out at 420 ± 140 nM; with RTEL1∆762R1264H [3] (no G4), 1750 ± 520 nM; in the data set with RTEL1∆762-1097 [4] (no G4), 12600 ± 8470 nM; with RTEL1∆762 [5] (no G4), 93 ± 11 nM; with RTEL1∆762R1264H [6] (no G4), 309 ± 68 nM; with RTEL1∆762-1097 [7] (no G4) it was 826 ± 134 nM.

Consider AUUAUUAUUAUUAUUAUUAUUAUU (ssRNA) [AU-rich 24mer], for which the Kd with RTEL1∆762 [1] (unstructured) is 42 ± 6.1 nM.

In the case of UUAGGGUUAGGGUUAGGGUUAGGG (ssRNA) [TERRA (FAM), not folded (0 mM KCl)], the Kd with RTEL1∆762 [8] stood at 37.1 ± 9.6 nM.

As to UUACCGUUACCGUUACCGUUACCG (ssRNA) [TERRA-MUT (FAM)], in the data set with RTEL1∆762 [9], the Kd was found to be 108 ± 21.6 nM.

On to UUAGGGUUAGGGUUAGGGUUAGGG (structured_RNA) [TERRA (FAM), folded in KCl], for which, in the data set with RTEL1∆762 [10], the Kd stood at 1.3 ± 3.6 nM. Moreover, the binding result in the data set with RTEL1∆1143 is given as “no binding”.

B1: RTEL1^∆762 (human RTEL1 residues 762-1300, lacks the helicase domain) (domain or fragment, UniProt Q9NZ71-6 762-1300, looked up)
chain: RATAPSVRGEDAVSEAKSPGPFFSTRKAKSLDLHVPSLKQRSSGSPAAGDPESSLCVEYEQEPVPARQRPRGLLAALEHSEQRAGSPGEEQAHSCSTLSLLSEKRPAEEPRGGRKKIRLVSHPEEPVAGAQTDRAKLFMVAVKQELSQANFATFTQALQDYKGSDDFAALAACLGPLFAEDPKKHNLLQGFYQFVRPHHKQQFEEVCIQLTGRGCGYRPEHSIPRRQRAQPVLDPTGRTAPDPKLTVSTAAAQQLDPQEHLNQGRPHLSPRPPPTGDPGSQPQWGSGVPRAGKQGQHAVSAYLADARRALGSAGCSQLLAALTAYKQDDDLDKVLAVLAALTTAKPEDFPLLHRFSMFVRPHHKQRFSQTCTDLTGRPYPGMEPPGPQEERLAVPPVLTHRAPQPGPSRSEKTGKTQSKISSFLRQRPAGTVGAGGEDAGPSQSSGPPHGPAASEWGEPHGRDIAGQQATGAPGGPLSAGCVCQGCGAEDVVPFQCPACDFQRCQACWQRHLQASRMCPACHTASRKQSVMQVFWPEPQ
notes: residue numbers run to 1300; Cloned between EcoRI and XhoI of pET28; expected monomer mass printed as 62 kDa; source: E. coli BL21, purified (His-trap, Hi-Trap Q, Superdex 200)
As a reminder, the stoichiometry N is a count of units in the complex or per binding partner. As to B1, the “stoichiometry N” value in [11] worked out at 2.

GGTTAGGGTTAGGGTTAGGGTTAGGGTTAG (structured_DNA) [hTelo]: the Ki stood at 74 ± 12 nM with RTEL1∆762 [2] (G4); 212 ± 17 nM in the data set with RTEL1∆762R1264H [3] (G4); 1720 ± 302 nM in the data set with RTEL1∆762-1097 [4] (G4); 29 ± 4 nM in the data set with RTEL1∆762 [5] (G4); 47 ± 9 nM with RTEL1∆762R1264H [6] (G4); 276 ± 39 nM with RTEL1∆762-1097 [7] (G4).
